For five substances, response (Absorbance (405 nm)) results are on record in article PMC5574023.

The target in this assay is platelet receptor GPIIbIIIa (αIIbβ3) on human platelets, P08514;P05106. The experiment in a line: platelet adhesion to immobilized protein (phosphatase assay). The note with it: read off a plot.

“recombinant PadA-F2 region fragment (from UniProt A8AZP4) G486A; D487A”: the response (Absorbance (405 nm)) came out at 0.27 (parent: est. 0.48) and 0.87 (parent: est. 0.88).
For “recombinant PadA-F2 region fragment (from UniProt A8AZP4) N214A; G215A; R216A” the same measures were 0.28 and 0.72.
Consider “recombinant PadA-F2 region fragment (from UniProt A8AZP4) N214A; G215A; R216A; R416A; G417A; T418A; G486A; D487A”, for which the response (Absorbance (405 nm)) reads like this: (TRAP-activated gel-filtered platelets, 2 × 10^7 per well, 10 μg protein per well, 37°C, 45 min, static, parent: est. 0.88) 0.2; (non-activated gel-filtered platelets, 2 × 10^7 per well, 10 μg protein per well, 37°C, 45 min, static, parent: est. 0.48) 0.49.
Consider “recombinant PadA-F2 region fragment (from UniProt A8AZP4) R416A; G417A; T418A”, for which the response (Absorbance (405 nm)) is 0.21 (parent: est. 0.48) and 0.8 (parent: est. 0.88).
For “recombinant PadA-F2 region fragment (from UniProt A8AZP4) R416A; G417A; T418A; G486A; D487A” the same measures were 0.71 and 0.44.
